Measured values published in US20200362021A1 (PHANES THERAPEUTICS, published 2020).
Numbering of substitutions follows the chain as printed. Read-outs that look alike come from different tables or passages of the source. No end group written: not given here. *: point of attachment. Biotin = O=C1N[C@H]2[C@H](CS[C@H]2CCCCC(=O)*)N1

Assays:
[1] = target: T1, apelin-13-biotin (…-biotin) (C-terminal biotin); test: SPR (Biacore), apelin-13-biotin on streptavidin chip
T1 construct: also called APL13-Biotin
Experimental: (§1) Anti-apelin mAbs at four different concentrations (12.5 nM, 25 nM, 50 nM and 100 nM) were captured on the chip surface. The on- and off-rate for antibody-antigen binding were measured, curve fitted and calculated.

[2] = target: T2, pyr-apelin-13-biotin (pE-RPRLSHKGPMPF-biotin) (N-terminal pyroglutamate (pE); C-terminal biotin); test: SPR (Biacore), pyr-apelin-13-biotin on streptavidin chip
T2 construct: also called pyrAPL13-Biotin
T2 peptide: ERPRLSHKGPMPF
Experimental: as §1

Biotin-APL17 = target: T3, Biotin-APL17; test: ELISA, peptide on neutravidin plate, mAb 200 ng/ml, A405
T3 peptide: Biotin-KFRRQRPRLSHKGPMPF
Experimental: (§2) FIGS. 1A-1C show binding of anti-apelin mAbs to various biotinylated apelin peptides measured by ELISA. Biotinylated apelin peptides were immobilized on ELISA plates coated with neutravidin and purified recombinant rabbit anti-apelin mAbs were added for binding to the peptides on the plates. The binding was detected by adding a goat anti-rabbit IgG Fc-conjugated to alkaline phosphatase and PNPP substrate, and measured as the absorbance at 405 nm.
(§3) For the binding assay, neutravidin in carbonate coating buffer was coated on high binding ELISA plates at 1 μg/ml overnight. Peptides were added at 4 μg/ml after the plates were blocked with 1% BSA in TBS. After incubation of the plates at room temperature for 60 minutes, the plates were washed and then purified recombinant rabbit antibodies were added at 200 ng/ml. Following rabbit antibody binding to the peptides on the plates at room temperature for 90 minutes, goat anti-rabbit IgG Fc-conjugated to alkaline phosphatase was added, and antibody-antigen binding was detected by adding PNPP substrate and reading absorbance of ELISA plates at 405 nm. Each mAb was assayed in duplicate.

APL17-Biotin = target: T4, APL17-Biotin; test: as above
T4 peptide: KFRRQRPRLSHKGPMPF-biotin
Experimental: as §2, §3

1-4 [3] = target: T5, 1-4; test: competition ELISA, captured mAb, peptide competes with apelin-13-biotin, A405
T5 construct: also called apelin peptide 1-4 (QRPR)
T5 peptide: QRPR

[4] = target: T6, apelin 17 (competition peptide 1-17, KFRRQRPRLSHKGPMPF); test: as above
T6 peptide: KFRRQRPRLSHKGPMPF

[5] = target: T7, apelin peptide 1-12 (QRPRLSHKGPMP); test: as above
T7 peptide: QRPRLSHKGPMP

[6] = target: T8, apelin peptide 2-13 (RPRLSHKGPMPF); test: as above
T8 peptide: RPRLSHKGPMPF

[7] = target: T9, apelin peptide 1-11 (QRPRLSHKGPM); test: as above
T9 peptide: QRPRLSHKGPM

[8] = target: T10, apelin peptide 1-10 (QRPRLSHKGP); test: as above
T10 peptide: QRPRLSHKGP

[9] = target: T11, apelin peptide 1-9 (QRPRLSHKG); test: as above
T11 peptide: QRPRLSHKG

[10] = target: T12, apelin peptide 1-8 (QRPRLSHK); test: as above
T12 peptide: QRPRLSHK

[11] = target: T13, apelin peptide 1-7 (QRPRLSH); test: as above
T13 peptide: QRPRLSH

[12] = target: T14, apelin peptide 1-6 (QRPRLS); test: as above
T14 peptide: QRPRLS

[13] = target: T15, apelin peptide 1-5 (QRPRL); test: as above
T15 peptide: QRPRL

[14] = target: T16, alanine scanning peptide 1A (ARPRL); test: as above
T16 peptide: ARPRL
Experimental: (§4) Each peptide or control sample was assayed in duplicate for a given mAb.

[15] = target: T17, alanine scanning peptide 2A (QAPRL); test: as above
T17 peptide: QAPRL
Experimental: as §4

[16] = target: T18, alanine scanning peptide 3A (QRARL); test: as above
T18 peptide: QRARL
Experimental: as §4

[17] = target: T19, alanine scanning peptide 4A (QRPAL); test: as above
T19 peptide: QRPAL
Experimental: as §4

[18] = target: T20, alanine scanning peptide 5A (QRPRA); test: as above
T20 peptide: QRPRA
Experimental: as §4

1-4 [19] = target: T5, 1-4; test: as above
[20] = target: T6, apelin 17 (competition peptide 1-17, …); test: as above
[21] = target: T7, apelin peptide 1-12 (QRPRLSHKGPMP); test: as above
[22] = target: T8, apelin peptide 2-13 (RPRLSHKGPMPF); test: as above
[23] = target: T9, apelin peptide 1-11 (QRPRLSHKGPM); test: as above
[24] = target: T10, apelin peptide 1-10 (QRPRLSHKGP); test: as above
[25] = target: T11, apelin peptide 1-9 (QRPRLSHKG); test: as above
[26] = target: T12, apelin peptide 1-8 (QRPRLSHK); test: as above
[27] = target: T13, apelin peptide 1-7 (QRPRLSH); test: as above
[28] = target: T14, apelin peptide 1-6 (QRPRLS); test: as above
[29] = target: T15, apelin peptide 1-5 (QRPRL); test: as above
1-4 [30] = target: T5, 1-4; test: as above
[31] = target: T6, apelin 17 (competition peptide 1-17, …); test: as above
[32] = target: T7, apelin peptide 1-12 (QRPRLSHKGPMP); test: as above
[33] = target: T8, apelin peptide 2-13 (RPRLSHKGPMPF); test: as above
[34] = target: T9, apelin peptide 1-11 (QRPRLSHKGPM); test: as above
[35] = target: T10, apelin peptide 1-10 (QRPRLSHKGP); test: as above
[36] = target: T11, apelin peptide 1-9 (QRPRLSHKG); test: as above
[37] = target: T12, apelin peptide 1-8 (QRPRLSHK); test: as above
[38] = target: T13, apelin peptide 1-7 (QRPRLSH); test: as above
[39] = target: T14, apelin peptide 1-6 (QRPRLS); test: as above
[40] = target: T15, apelin peptide 1-5 (QRPRL); test: as above

B1: anti-apelin mAb C7 (antibody, V domains shown)
VH: QSLEESGGRLAKPDETLTLTCTVSGIDLNSHAMDWVRQAPGKGLEWIGVIAPDTRTYYATWARGRFTISKTSSTSVELKMTSLTTEDTATYFCAAYPIEPGANIWGPGTLVTVSS
VL: DPVLTQTPSPVSAPVGGTVTIGCQASESVDYNNQLSWYQQKPGQAPKRLMYYVSTLDSGVPSRFKGSGSGTQFTLTISDLECDDAATYYCQGGYPYNIYPFGGGTEVVVK
notes: recombinant rabbit IgG made in HEK293 cells
- Kd [1]: 3.14 pM
- Kd [2]: 0.326 pM
- binding result (Biotin-APL17): no binding (tested: 200 ng/ml)
- binding result (APL17-Biotin): no binding (tested: 200 ng/ml)
- binding result (1-4 [3]): no binding (tested: peptide concentration not stated)
- binding result [4]: no binding (tested: peptide concentration not stated)
- binding result [5]: binds
- binding result [6]: no binding (tested: peptide concentration not stated)
- binding result [7]: binds
- binding result [8]: binds
- binding result [9]: binds
- binding result [10]: binds
- binding result [11]: binds
- binding result [12]: binds
- binding result [13]: binds
- binding result [14]: no binding (tested: peptide concentration not stated)
- binding result [15]: no binding (tested: peptide concentration not stated)
- binding result [16]: no binding (tested: peptide concentration not stated)
- binding result [17]: no binding (tested: peptide concentration not stated)
- binding result [18]: no binding (tested: peptide concentration not stated)

B2: anti-apelin mAb C1 (antibody, V domains shown)
VH: QSLEESGGRLVTPGGSLTLTCTVSGFSLSSYAMDWVRQAPGKGLEWIGVIAPNGATYYPTWARGRFTISKTSTTVDLKMTSLTAADTATYFCATYPIDAGANIWGPGTLVTVSS
VL: DPVLTQTPSSVSAAVGGTVTIGCQSSESVDNNNQLSWYQQKSGQPPKRLMYYVSTLDSGVPSRFKGSGSGTHFTLTISGVQCYDAATYYCQGGYISNLYPFGGGTEVVVK
notes: as for B1
- Kd [1]: 48.9 pM
- Kd [2]: 0.154 pM
- binding result (Biotin-APL17): no binding (tested: 200 ng/ml)
- binding result (APL17-Biotin): no binding (tested: 200 ng/ml)
- binding result (1-4 [19]): no binding (tested: peptide concentration not stated)
- binding result [20]: no binding (tested: peptide concentration not stated)
- binding result [21]: binds
- binding result [22]: no binding (tested: peptide concentration not stated)
- binding result [23]: binds
- binding result [24]: binds
- binding result [25]: binds
- binding result [26]: binds
- binding result [27]: binds
- binding result [28]: binds
- binding result [29]: binds

B3: anti-apelin mAb C6 (antibody, V domains shown)
VH: B1 VH with A11V, N29S, S30N, H31Y, D53N, T54R, A59P, S75T, E77D, A95T
VL: B1 VL with A25S, A45P, P95I, Y96S
notes: as for B1
- Kd [1]: 5.96 pM
- Kd [2]: 0.513 pM
- binding result (Biotin-APL17): no binding (tested: 200 ng/ml)
- binding result (APL17-Biotin): no binding (tested: 200 ng/ml)
- binding result (1-4 [30]): no binding (tested: peptide concentration not stated)
- binding result [31]: no binding (tested: peptide concentration not stated)
- binding result [32]: binds
- binding result [33]: no binding (tested: peptide concentration not stated)
- binding result [34]: binds
- binding result [35]: binds
- binding result [36]: binds
- binding result [37]: binds
- binding result [38]: binds
- binding result [39]: binds
- binding result [40]: binds
- binding result [14]: no binding (tested: peptide concentration not stated)
- binding result [15]: no binding (tested: peptide concentration not stated)
- binding result [16]: no binding (tested: peptide concentration not stated)
- binding result [17]: no binding (tested: peptide concentration not stated)
- binding result [18]: no binding (tested: peptide concentration not stated)
